We go through 1 molecule from PMC10941009, “Structural basis for specific DNA sequence recognition by the transcription factor NFIL3” (The Journal of Biological Chemistry, 2024).

Substitutions are numbered along the chain they refer to.

Holding throughout (test): ITC; ITC: 20 mM Tris pH 7.5, 150 mM NaCl, 25 °C; EMSA: same buffer, 4 °C, 6% native gel in 0.5x TBE
What all share (conditions): protein: recombinant; tags: His6-SUMO removed by TEV; chain copies: 2; blunt

The target in one series is T1, NFIL3 A113T (human, UniProt Q16649 65-161, A113T).
T1 sequence: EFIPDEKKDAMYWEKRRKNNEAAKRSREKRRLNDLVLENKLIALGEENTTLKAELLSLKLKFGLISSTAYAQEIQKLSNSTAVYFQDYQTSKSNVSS

The next series addresses T2, NFIL3 R95Q (human, UniProt Q16649 65-161, R95Q).
T2 sequence: T1 sequence with R31Q, T49A

Another series addresses T3, NFIL3 R94H (human, UniProt Q16649 65-161, R94H).
T3 sequence: T1 sequence with R30H, T49A

The next series deals with T4, NFIL3 N84A (human, UniProt Q16649 65-161, N84A).
T4 sequence: T1 sequence with N20A, T49A

Another series concerns the target T5, NFIL3 E111Q (human, UniProt Q16649 65-161, E111Q).
T5 sequence: T1 sequence with E47Q, T49A

A further series deals with T6, NFIL3 N112D (human, UniProt Q16649 65-161, N112D).
T6 sequence: T1 sequence with N48D, T49A

In another series the target is T7, NFIL3 E78G (human, UniProt Q16649 65-161, E78G).
T7 sequence: T1 sequence with E14G, T49A

Another series has as its target T8, NFIL3 A113V (human, UniProt Q16649 65-161, A113V).
T8 sequence: T1 sequence with T49V

Another series concerns the target T9, NFIL3 E111D (human, UniProt Q16649 65-161, E111D).
T9 sequence: T1 sequence with E47D, T49A

The target in the next series is C/EBPβ E309D (human, UniProt P17676 259-336, E309D).
Another series deals with C/EBPα D320E (human, UniProt P49715 281-340, D320E).
C/EBPα D320E, sequence (P49715 281-340 D320E): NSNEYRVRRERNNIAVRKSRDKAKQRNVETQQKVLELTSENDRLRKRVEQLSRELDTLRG

C/EBPβ E309D, sequence (P17676 259-336 E309D): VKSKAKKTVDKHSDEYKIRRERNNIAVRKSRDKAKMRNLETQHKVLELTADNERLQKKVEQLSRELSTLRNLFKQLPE

B1: TTACGTAA (dsDNA)
DNA 1: CATTACGTAATG
DNA 2: CATTACGTAATG
As usually defined, the Kd is the concentration at which binding is half-saturated. B1: the Kd was 220 ± 30 nM in the series with NFIL3 A113T; 8400 ± 720 nM with NFIL3 R95Q; 4010 ± 740 nM with NFIL3 R94H; 1490 ± 110 nM with NFIL3 N84A; 200 ± 20 nM with NFIL3 E111Q; 2150 ± 160 nM with NFIL3 N112D. Besides, the Kd with NFIL3 E78G was 2180 ± 150 nM; with NFIL3 A113V it was 120 ± 10 nM. Moreover, the binding signal with NFIL3 E111D was roughly 8 fold weaker than WT; with C/EBPβ E309D, roughly 4 fold weaker than WT; in the series with C/EBPα D320E, roughly 5 fold stronger than WT.
